Experimental data taken from patent publication US20220018842A1 (FUKUSHIMA MEDICAL UNIVERSITY, published 2022).

Columns and labels:
CLDN5 = target: T1, CLDN5 (UniProt O00501 1-218, limits assumed); assay: Western blot of extract of HEK293T cells expressing the claudin; undiluted culture supernatant
T1 construct: whole, on cells; also called claudin 5
T1 sequence (looked up): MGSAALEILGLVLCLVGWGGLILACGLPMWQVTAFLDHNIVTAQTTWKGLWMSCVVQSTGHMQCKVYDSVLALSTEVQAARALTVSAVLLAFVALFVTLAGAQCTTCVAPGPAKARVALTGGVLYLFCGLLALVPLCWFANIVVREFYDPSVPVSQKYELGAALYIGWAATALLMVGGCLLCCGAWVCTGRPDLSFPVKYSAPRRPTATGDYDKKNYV
Procedure: (§1) 48 hours after the introduction of each gene, protein was extracted using a lysate in which the proteolytic enzyme inhibitor, Complete mini EDTA-free (Roche Diagnostics) was added to CelLytic™ MT Cell Lysis Reagent (Sigma-Aldrich) at a concentration of […]. SDS-PAGE, […], and antibody reaction were sequentially performed according to a standard protocol, chemiluminescence was performed by ECL™ Prime Western Blotting Detection reagent (GE Healthcare), and images were taken using CCD imager Image Quant LAS4000 (GE Healthcare). The primary antibody was reacted overnight at 4° C. using a culture supernatant stock solution of αCLDN6 #C6C15-1, and the secondary antibodies were reacted for 30 minutes using ECL™ Rat IgG, HRP-linked whole antibody (Sigma-Aldrich) diluted 2,000-fold with PBS, and ECL™ Rabbit IgG and HRP-linked whole antibody (Sigma-Aldrich) described in Table 1 diluted 5,000-fold with PBS, respectively.
(§2) In order to confirm the antigen specificity and cross-reactivity of the anti-CLDN6 monoclonal antibody (αCLDN6 #C6C15-1) produced in the Examples, Western blotting was performed for CLDN1, CLDN4, CLDN5, CLDN6, and CLDN9 for verification.

CLDN4 = target: T2, CLDN4 (UniProt O14493 1-209, limits assumed); assay: as above
T2 construct: whole, on cells; also called claudin 4
T2 sequence (looked up): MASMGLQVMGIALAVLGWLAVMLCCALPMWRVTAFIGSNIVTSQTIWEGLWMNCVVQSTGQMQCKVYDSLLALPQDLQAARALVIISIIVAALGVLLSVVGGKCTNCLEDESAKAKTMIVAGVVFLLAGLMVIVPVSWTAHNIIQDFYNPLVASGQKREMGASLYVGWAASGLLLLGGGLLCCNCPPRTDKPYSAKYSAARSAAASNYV
Procedure: as §1, §2

CLDN9 = target: T3, CLDN9 (UniProt O95484 1-217, limits assumed); assay: as above
T3 construct: whole, on cells; also called claudin 9
T3 sequence (looked up): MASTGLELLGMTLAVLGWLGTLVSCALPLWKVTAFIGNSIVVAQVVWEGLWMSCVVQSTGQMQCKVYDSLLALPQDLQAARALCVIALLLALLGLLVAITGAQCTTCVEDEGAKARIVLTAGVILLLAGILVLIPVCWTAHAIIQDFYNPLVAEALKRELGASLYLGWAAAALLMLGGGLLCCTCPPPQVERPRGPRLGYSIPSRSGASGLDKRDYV
Procedure: as §1, §2

CLDN1 = target: T4, CLDN1 (UniProt O95832 1-211, limits assumed); assay: as above
T4 construct: whole, on cells; also called claudin 1
T4 sequence (looked up): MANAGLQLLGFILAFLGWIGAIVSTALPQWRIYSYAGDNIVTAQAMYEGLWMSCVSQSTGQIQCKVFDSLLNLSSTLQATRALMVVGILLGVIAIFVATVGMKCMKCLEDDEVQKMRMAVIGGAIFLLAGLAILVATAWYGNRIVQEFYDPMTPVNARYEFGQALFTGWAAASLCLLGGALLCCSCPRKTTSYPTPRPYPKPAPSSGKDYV
Procedure: as §1, §2

[1] = target: T5, antigen peptide having the amino acid sequence from the 208th position to the 220th position of the human … (human); assay: ELISA of hybridoma culture supernatant on coated antigen peptide
T5 construct: Coupled to KLH for immunisation
T5 peptide: SRGPSEYPTKNYV
Procedure: After 4 days of culture, the medium was exchanged with 100 μL of hybridoma medium. Positive clones were screened by ELISA using 50 μL of the culture supernatant 2 days after the exchange. The screening was performed by the following procedure.
First, the antigen peptide solution was diluted to 3 μg/mL, 100 μL was added to each well of a 96-well ELISA plate, and the mixture was allowed to stand overnight at 37° C. Then, the antigen peptide solution was removed from each well, the wells were washed with 200 μL of PBS, then a blocking solution (1% bovine serum albumin/PBS) was added, and the mixture was allowed to stand at 37° C. for 1 hour. Then, the blocking solution was removed from each well, the wells washed with 200 μL of PBS, 50 μL of culture supernatant was added, and the mixture was reacted at 37° C. for 1 hour. After removing the culture supernatant from each well, the wells were washed 3 times with 200 μL of PBS. […] After that, the secondary antibody solution was removed from each well, the wells were washed 3 times with PBS, and then the color was developed using TMB Substrate Set (BioLegend) with the method recommended by the manufacturer, and the absorbance was measured.

[2] = target: T6, claudin 6 (CLDN6) protein (human, UniProt P56747 1-220); assay: Western blot of extract of HEK293T cells expressing CLDN6
T6 construct: also called human CLDN6 protein
T6 sequence: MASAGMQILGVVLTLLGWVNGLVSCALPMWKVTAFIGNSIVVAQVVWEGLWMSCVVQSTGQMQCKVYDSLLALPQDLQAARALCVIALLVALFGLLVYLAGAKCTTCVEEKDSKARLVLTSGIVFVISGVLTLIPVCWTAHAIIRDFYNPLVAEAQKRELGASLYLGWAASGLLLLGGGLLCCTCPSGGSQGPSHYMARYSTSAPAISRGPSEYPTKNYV

binding result (CLDN5): no binding
binding result (CLDN4): no binding
binding result (CLDN9): no binding
binding result (CLDN1): no binding
binding result [1]: binds
binding result [2]: binds
B1: Rat αCLDN6 #C6C15-1 monoclonal antibody (antibody, V domains shown)
VH: EVKLVETGGGLVKPGGSLRLSCATSGFNFNDYFMNWVRQAPGKGLEWVAQIRNKNYNYATYYAESLEGRVTISRDDSKSSVYLQVSSLRAEDTAIYYCTRGAYWGQGVMVTVSS
VL: DIVMTQSPSFLSASVGERVTLSCRASQNINKYLDWYQQKLGEAPKLLIYDTNNLHAGIPSRFSGSGSGTDYTLTISSLQPEDVATYFCLQRNSWPYTFGAGTKLELK
notes: Rat hybridoma monoclonal antibody (detected with anti-rat IgG), used as undiluted culture supernatant; constant regions and isotype are not; also called αCLDN6 #C6C15-1 antibody; ACLDN6 #C6C15-1 antibody
